pKd: −log10 of the molar value.
Key:
[1] = biological target: 6×His-tagged human DSG2 EC1-5 (amino acids A1-A553) from Expi293F GnTI- cells (human); assay: BLI; biotinylated DSG2 variants loaded on streptavidin biosensors (immobilized at 1 μg/mL); FimH^LD or FimH^Q133K in solution, 10 μM to 156 nM, 15 min association, 20 min dissociation; 10 mM HEPES pH 7.4, 150 mM NaCl, 1 mM CaCl2, 3 mM EDTA, 0.005% P20, 1% BSA, 25°C; Octet-Red96; global 1:1 fit with drifting baseline; apparent constants
[2] = biological target: 6×His-tagged human DSG2 EC1-5 (amino acids A1-A553) from wild-type Expi293F cells (human); assay: as above

Work on “lectin domain of FimH (FimH^LD, amino acids F1-G160) (from UniProt P08191 22-181) (domain or fragment)” yielded a pKd [1] of 6.32 and a pKd [2] of 5.80.
